# Test results taken from patent publication US20110142840A1 (ONCOMED PHARMACEUTICALS, published 2011).
# B1: 13-MET human IgG1 antibody (antibody, V domains shown)
# VH: QVQLKESGPALVKPTQTLTLTCTFSGFSLSTSGMVVSWIRQPPGKALEWLAFISWDDDKYYSTSLKTRLTISKDTSKNQVVLTMTNMDPVDTATYYCAREPGRYGGYYFDYWGQGTLVTVSS
# VL: DIQMTQSPSSLSASVGDRVTITCRASQTISHYLAWYQQKPGKAPKLLIYAASILQSGVPSRFSGSGSGTDFTLTISSLQPEDFAVYYCQQYSGFPVTFGQGTKVEIKR
# notes: Fab variable regions combined with human constant regions to give a full human IgG1; ATCC deposit PTA-9148; also called 13-MET IgG; MET-13 IgG
# B2: 28-MET human IgG1 antibody (antibody, V domains shown)
# VH: QVQLQESGPGLVKPGETLSLTCTVSGGSISGYYWSWIRQAPGKGLEWIGEIYYAGSTLYNPSLKGRVTISVDTSKNQFSLKLSSVTAEDTAVYYCARHYGLDWFGDTGMDVWGQGTLVTVSS
# VL: DIELTQPPSVSVAPGQSITISCSGDNLGDKYVHWYQQKPGQAPVLVIYDDNERPSGIPERFSGSNSGNTATLTISGTQAEDEADYYCSAYGSHSGTVFGGGTKLTVLG
# notes: Fab variable regions combined with human constant regions to give a full human IgG1; ATCC deposit PTA-9149; also called 28-MET IgG; MET-28 IgG
# B3: 9-MET (divalent dimer of two 13-MET Fabs linked via a helix-loop-helix motif) (other)
# VH: B1 VH
# VL: DIQMTQSPSSLSASVGDRVTITCRASQTISHYLAWYQQKPGKAPKLLIYAASILQSGVPSRFSGSGSGTDFTLTISSLQPEDFAVYYCQQYSGFPVTFGQGTKVEIKRT
# notes: also called 9d; dimeric Fab-dHLX of Fab 13
# B4: 19-MET (divalent dimer of two 28-MET Fabs linked via a helix-loop-helix motif) (other)
# VH: B2 VH
# VL: B2 VL
# notes: also called 19d; dimeric Fab-dHLX of Fab 28
# B5: 28-MET monovalent Fab (Fab, V domains shown)
# VH: B2 VH
# VL: B2 VL
# notes: Monovalent human Fab from the Morphosys HuCAL GOLD Fab library; the Fab constant parts are not; also called Fab-28; R28
# B6: 13-MET monovalent Fab (Fab, V domains shown)
# VH: B1 VH
# VL: B1 VL
# notes: Monovalent human Fab from the Morphosys HuCAL GOLD Fab library; the Fab constant parts are not; also called Fab-13; R13
# How the values were obtained:
# [1] = biological target: T1, human MET Receptor on cells (human, UniProt P08581 25-1390); assay: cell-based or functional assay
# T1 sequence (P08581 25-1390): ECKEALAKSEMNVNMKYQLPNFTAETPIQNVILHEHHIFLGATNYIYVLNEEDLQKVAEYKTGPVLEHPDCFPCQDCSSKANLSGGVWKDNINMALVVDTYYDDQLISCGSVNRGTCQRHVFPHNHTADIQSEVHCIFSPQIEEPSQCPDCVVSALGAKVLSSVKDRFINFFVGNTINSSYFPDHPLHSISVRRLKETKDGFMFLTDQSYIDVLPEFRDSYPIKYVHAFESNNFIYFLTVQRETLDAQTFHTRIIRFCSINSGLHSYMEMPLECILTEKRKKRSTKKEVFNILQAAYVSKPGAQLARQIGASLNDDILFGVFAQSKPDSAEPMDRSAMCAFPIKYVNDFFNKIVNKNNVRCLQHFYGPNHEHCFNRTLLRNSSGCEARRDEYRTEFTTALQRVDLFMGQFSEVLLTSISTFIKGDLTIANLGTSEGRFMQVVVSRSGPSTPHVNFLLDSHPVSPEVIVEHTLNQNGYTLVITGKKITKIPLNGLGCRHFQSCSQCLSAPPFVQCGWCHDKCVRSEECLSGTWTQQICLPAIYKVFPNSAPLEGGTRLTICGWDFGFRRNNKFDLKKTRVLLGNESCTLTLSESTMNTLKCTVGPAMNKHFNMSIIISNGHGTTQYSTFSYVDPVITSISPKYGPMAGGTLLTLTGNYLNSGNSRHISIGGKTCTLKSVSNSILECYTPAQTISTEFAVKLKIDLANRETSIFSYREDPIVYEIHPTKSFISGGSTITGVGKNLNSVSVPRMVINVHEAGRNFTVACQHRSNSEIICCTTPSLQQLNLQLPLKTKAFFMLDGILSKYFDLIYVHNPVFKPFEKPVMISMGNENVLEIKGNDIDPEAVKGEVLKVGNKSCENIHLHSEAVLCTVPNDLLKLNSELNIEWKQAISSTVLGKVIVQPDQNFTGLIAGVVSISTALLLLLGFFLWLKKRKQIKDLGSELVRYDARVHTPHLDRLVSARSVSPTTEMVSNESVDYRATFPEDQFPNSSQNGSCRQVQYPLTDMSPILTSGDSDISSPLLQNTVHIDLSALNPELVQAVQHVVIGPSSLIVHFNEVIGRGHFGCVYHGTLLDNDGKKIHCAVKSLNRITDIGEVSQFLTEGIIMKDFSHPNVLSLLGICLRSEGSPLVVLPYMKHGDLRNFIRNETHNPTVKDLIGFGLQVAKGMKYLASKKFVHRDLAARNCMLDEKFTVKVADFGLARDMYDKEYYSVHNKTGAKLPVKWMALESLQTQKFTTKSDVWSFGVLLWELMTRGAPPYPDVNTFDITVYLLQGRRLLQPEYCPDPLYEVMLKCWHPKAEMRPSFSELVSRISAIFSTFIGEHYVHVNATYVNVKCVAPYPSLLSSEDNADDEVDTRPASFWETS
# [2] = biological target: T2, recombinant human MET extracellular domain (MET ECD) (human, UniProt P08581 25-932); assay: BIAcore 2000; MET ECD amine-coupled on CM5 chip, antibody injected at 100-1 nM, global fit
# T2 construct: extracellular domain; also called full-length MET-ECD molecule
# T2 sequence (P08581 25-932): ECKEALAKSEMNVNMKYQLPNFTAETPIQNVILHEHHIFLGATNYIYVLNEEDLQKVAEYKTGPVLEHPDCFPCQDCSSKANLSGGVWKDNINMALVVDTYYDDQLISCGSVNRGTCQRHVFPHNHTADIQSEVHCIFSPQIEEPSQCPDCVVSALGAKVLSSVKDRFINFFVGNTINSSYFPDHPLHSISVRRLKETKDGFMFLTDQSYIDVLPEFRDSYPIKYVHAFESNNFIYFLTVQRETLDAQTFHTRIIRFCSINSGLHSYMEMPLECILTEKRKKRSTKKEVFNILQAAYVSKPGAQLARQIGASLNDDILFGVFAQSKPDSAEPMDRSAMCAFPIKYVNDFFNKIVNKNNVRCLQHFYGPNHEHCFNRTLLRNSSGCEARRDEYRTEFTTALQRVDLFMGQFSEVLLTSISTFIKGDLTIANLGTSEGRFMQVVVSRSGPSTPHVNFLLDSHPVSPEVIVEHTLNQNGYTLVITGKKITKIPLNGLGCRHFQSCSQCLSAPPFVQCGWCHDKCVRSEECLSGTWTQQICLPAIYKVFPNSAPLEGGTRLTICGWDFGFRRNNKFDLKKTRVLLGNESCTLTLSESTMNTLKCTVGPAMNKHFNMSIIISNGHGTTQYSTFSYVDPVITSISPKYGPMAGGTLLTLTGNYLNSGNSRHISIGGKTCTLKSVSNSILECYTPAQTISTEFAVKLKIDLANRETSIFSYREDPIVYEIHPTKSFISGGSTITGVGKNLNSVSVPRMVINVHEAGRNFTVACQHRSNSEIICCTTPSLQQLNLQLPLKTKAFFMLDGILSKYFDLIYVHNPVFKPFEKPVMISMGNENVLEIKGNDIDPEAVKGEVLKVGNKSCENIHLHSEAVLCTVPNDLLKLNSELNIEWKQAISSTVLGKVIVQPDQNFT
# Procedure: (§1) Fab and IgG affinities were determined using a BIAcore 2000 instrument. Briefly, MET ECD was immobilized on a CM5 chip using standard amine based chemistry (NHS/EDC). For each Fab and IgG, different concentrations (100-1 nM) were injected over the MET ECD surface and kinetic data were collected over time. The data was fit using the simultaneous global fit equation to yield affinity constants (KD) for each Fab and IgG.
# [3] = biological target: T3, recombinant human MET PSI-IPT domains (human, UniProt P08581 516-932, limits assumed); assay: plate binding assay, 384-well plates coated with recombinant domains
# T3 construct: domain: PSI-IPT; also called PSI-IST (as printed once)
# T3 sequence (P08581 516-932 limits assumed): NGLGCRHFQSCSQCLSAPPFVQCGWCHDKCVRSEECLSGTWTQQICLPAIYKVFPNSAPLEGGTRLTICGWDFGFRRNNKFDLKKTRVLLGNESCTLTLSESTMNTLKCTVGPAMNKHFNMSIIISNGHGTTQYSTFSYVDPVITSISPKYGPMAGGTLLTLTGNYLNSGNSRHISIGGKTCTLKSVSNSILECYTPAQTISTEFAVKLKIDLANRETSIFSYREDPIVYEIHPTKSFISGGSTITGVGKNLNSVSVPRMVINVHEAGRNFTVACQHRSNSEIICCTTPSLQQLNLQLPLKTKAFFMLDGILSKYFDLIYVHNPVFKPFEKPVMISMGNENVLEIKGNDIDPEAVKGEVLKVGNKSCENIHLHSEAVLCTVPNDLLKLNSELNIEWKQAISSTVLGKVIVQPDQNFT
# [4] = biological target: T4, recombinant human MET SEMA domain (human, UniProt P08581 27-515); assay: as above
# T4 construct: domain: SEMA; also called SEMA domain of MET-ECD
# T4 sequence (P08581 27-515): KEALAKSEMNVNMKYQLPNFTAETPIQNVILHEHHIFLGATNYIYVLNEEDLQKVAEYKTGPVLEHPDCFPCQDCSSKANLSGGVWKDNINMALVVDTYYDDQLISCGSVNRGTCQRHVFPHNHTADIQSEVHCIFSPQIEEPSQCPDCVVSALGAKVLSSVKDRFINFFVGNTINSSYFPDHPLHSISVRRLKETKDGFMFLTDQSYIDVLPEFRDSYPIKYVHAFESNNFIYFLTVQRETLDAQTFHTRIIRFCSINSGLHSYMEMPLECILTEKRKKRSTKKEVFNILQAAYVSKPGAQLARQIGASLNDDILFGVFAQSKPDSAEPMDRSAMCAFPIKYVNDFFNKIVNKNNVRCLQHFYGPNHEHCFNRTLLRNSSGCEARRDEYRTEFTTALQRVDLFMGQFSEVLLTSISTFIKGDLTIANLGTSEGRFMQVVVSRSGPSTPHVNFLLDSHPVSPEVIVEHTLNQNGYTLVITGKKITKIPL
# [5] = biological target: T1, human MET Receptor on cells; assay: FACS on GTL-16 cells; AF647-R28 fixed at 360 nM, against AF647-R28 without R13
# [6] = biological target: T2, recombinant human MET extracellular …; assay: BIAcore 2000; MET ECD amine-coupled on CM5 chip, antibody injected at 100-1 nM, global fit; Dimer, not IgG
# Procedure: as §1
# [7] = biological target: T5, recombinant human MET/Fc chimeric protein (R&D Systems) (human, UniProt P08581 25-932); assay: HGF/MET blocking ELISA (Dm=IC50): antibody preincubated with MET/Fc, added to HGF-coated wells; unit from the legend of FIG. 2; FIG. 2A, B experiment
# T5 construct: extracellular domain; Bought reagent; also called MET Receptor extracellular domain; not shown: Fc part (detected with anti-human Fc) and any linker of the bought chimera
# T5 sequence (P08581 25-932, change not shown): as the sequence (P08581 25-932) above
# [8] = biological target: T5, recombinant human MET/Fc chimeric …; assay: HGF/MET blocking ELISA, experiment of Example 3; unit from the legend of FIG. 3; FIG. 3A experiment, antibody alone
# Procedure: (§2) After washing the wells once with 0.2% PBS/T, they were blocked with 5% PBS/milk for one hour. […] Washing was repeated as described above. Fifty microliters of substrate were added per well until a yellow color developed. The reaction was then stopped with 50 μL of 1 M H₂SO₄ and the absorbance at 450 nm determined with a standard plate reader.
# [9] = biological target: T5, recombinant human MET/Fc chimeric …; assay: HGF/MET blocking ELISA: antibody preincubated with MET/Fc, added to HGF-coated wells; unit from the legend of FIG. 1
# Procedure: as §2
Binder,EC50 of antibody-dependent cellular cytotoxicity (ADCC) on GTL-16 cells [1] [nM],Kd [2] [nM],binding result [3],IC50 [7] [nM],IC50 [8] [nM],IC50 [9] [nM],further results
B1,479,0.9,no binding,–,–,–,–
B2,3770,47.9,no binding,–,–,–,binding result [4]: no binding; fold increase of ΔMFI with 20 nM unlabeled R13 [5]: 2.6 fold
B3,–,–,–,5.08,8.88,–,Kd [6]: 0.56 nM
B4,–,8.7,–,44.3,106,–,–
B5,–,49,–,–,–,36.1,–
B6,–,–,–,–,–,12.4,–
